Here are results for two molecules from patent US20200087367A1 (ACCELERON PHARMA, published 2020).

In assay [1] the target is T1, ActRIIB-mFc (human, UniProt Q13705 20-134).
T1 sequence: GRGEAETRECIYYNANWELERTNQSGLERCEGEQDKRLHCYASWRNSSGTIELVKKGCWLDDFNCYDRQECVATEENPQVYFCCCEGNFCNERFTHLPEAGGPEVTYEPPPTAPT
In words: SPR (Biacore), ligand amine-coupled to CM5 chip, Fc fusion injected. (Surface plasmon resonance follows binding to a sensor surface in real time, without labels.)

The target in assay [2] is T2, hENG(438-586)-hFc (human, UniProt P17813 438-586).
T2 construct: HEK 293, purified; not shown: linker and human IgG1 Fc domain
T2 sequence: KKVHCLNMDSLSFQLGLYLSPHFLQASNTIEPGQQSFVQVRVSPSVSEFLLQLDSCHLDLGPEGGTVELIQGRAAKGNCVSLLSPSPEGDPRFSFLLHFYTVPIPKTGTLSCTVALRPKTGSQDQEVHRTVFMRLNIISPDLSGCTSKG
In words: SPR, captured hENG-hFc, soluble BMP10; '-' = Binding undetectable. The procedure:
(§1) SPR methodology was used to screen these hENG-hFc protein variants for high-affinity binding to human BMP9 and BMP10. In these experiments, captured hENG-hFc proteins were exposed to soluble BMP9 or BMP10 at 100 nM each.

In assay [3] the target is T3, hENG(26-257)-hFc (human, UniProt P17813 26-257).
T3 construct: HEK 293, purified; not shown: linker and human IgG1 Fc domain
T3 sequence: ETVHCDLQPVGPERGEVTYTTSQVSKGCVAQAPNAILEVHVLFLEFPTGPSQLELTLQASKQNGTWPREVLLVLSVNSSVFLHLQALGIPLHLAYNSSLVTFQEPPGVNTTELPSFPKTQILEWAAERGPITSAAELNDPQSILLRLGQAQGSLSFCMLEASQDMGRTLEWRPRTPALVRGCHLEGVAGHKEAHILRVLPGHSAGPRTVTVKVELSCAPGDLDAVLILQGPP
The description is as above. On the procedure:
as §1

In assay [4] the target is T4, hENG(360-581)-hFc (human, UniProt P17813 360-581).
T4 construct: HEK 293, purified; not shown: linker and human IgG1 Fc domain
T4 sequence: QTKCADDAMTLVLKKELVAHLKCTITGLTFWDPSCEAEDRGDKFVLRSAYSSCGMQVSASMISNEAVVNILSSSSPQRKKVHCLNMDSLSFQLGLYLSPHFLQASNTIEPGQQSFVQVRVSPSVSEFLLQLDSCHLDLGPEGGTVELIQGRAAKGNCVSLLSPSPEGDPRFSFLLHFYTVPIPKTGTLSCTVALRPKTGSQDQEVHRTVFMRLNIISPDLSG
Described as above. The procedure: as §1

For assay [5], the target named is T5, hENG(360-586)-hFc (human, UniProt P17813 360-586).
T5 construct: HEK 293, purified; not shown: linker and human IgG1 Fc domain
T5 sequence: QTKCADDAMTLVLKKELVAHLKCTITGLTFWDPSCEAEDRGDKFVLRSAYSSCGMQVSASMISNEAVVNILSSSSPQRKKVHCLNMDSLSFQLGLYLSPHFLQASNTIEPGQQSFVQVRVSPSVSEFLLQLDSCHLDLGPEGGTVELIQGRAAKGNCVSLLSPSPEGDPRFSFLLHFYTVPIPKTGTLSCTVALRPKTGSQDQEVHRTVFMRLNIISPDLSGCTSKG
Described as above. On the procedure: as §1

The target in assay [6] is T6, hENG(26-437)-hFc (human, UniProt P17813 26-437).
T6 construct: HEK 293, purified; not shown: linker and human IgG1 Fc domain
T6 sequence: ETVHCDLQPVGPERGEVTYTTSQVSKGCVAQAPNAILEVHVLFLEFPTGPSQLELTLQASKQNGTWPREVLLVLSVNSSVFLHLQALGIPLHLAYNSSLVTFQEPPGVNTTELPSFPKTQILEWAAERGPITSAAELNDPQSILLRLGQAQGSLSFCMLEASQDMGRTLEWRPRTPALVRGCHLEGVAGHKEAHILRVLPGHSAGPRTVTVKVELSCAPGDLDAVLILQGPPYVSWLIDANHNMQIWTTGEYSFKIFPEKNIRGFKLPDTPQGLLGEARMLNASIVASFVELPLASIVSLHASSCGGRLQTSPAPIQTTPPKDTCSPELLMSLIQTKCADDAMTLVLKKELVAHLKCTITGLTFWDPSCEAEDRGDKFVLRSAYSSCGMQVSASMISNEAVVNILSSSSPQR
In words: SPR kinetics; HEK293-cell-derived protein.

For assay [7], the target named is T7, BMP10pro(22-312)-mFc (human, UniProt O95393 22-312).
T7 construct: also called mouse Fc equivalent construct; not shown: optional linker and mouse immunoglobulin G1 Fc domain
T7 sequence: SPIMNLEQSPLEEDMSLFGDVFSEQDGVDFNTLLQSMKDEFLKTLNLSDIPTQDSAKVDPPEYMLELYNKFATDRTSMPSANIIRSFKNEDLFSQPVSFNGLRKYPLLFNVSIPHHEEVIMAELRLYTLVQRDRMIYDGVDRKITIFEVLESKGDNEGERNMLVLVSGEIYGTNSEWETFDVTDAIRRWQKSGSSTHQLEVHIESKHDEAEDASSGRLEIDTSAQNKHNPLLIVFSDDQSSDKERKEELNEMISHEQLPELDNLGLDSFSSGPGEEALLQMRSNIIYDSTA
In words: SPR (Biacore), BMP10pro-Fc captured by anti-Fc antibody, ligand injected. The procedure: (§2) The BMP10pro-Fc proteins were separately was captured onto the system using an anti-Fc antibody, and ligands were injected and allowed to flow over the captured receptor protein. […] The mouse Fc equivalent constructs behaved similarly. […] The affinity of BMP10pro(22-315)-hFc for BMP3b was not assessed.

For assay [8], the target named is T8, BMP10pro(22-315)-mFc (human, UniProt O95393 22-315).
T8 construct: also called mouse Fc equivalent construct; not shown: optional linker and mouse immunoglobulin G1 Fc domain
T8 sequence: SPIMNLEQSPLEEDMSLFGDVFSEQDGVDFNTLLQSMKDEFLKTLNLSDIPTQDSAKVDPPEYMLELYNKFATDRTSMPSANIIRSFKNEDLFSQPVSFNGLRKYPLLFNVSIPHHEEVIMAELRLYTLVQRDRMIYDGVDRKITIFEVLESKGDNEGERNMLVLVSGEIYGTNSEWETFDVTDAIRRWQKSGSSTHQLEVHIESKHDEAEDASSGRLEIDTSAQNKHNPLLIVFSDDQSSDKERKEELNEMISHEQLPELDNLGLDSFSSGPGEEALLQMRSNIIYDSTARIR
The description is as above. The procedure: as §2

Assay [9] concerns the target T9, ActRIIA-mFc (human, UniProt P27037 21-135).
T9 construct: not shown: linker and mouse Fc domain
In words: SPR (Biacore), ligand amine-coupled to chip, Fc fusion injected.

For assay [10], the target named is T6, hENG(26-437)-hFc. In words: SPR kinetics; HEK293-cell-derived protein. This is another data set of the same source.

Like-named read-outs stand apart in the source and are kept apart here.

T9 sequence (P27037 21-135): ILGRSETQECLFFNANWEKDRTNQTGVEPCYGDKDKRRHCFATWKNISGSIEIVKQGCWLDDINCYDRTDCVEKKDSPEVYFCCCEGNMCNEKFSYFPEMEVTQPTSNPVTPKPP

B1: BMP10 (ligand)
chain: NAKGNYCKRTPLYIDFKEIGWDSWIIAPPGYEAYECRGVCNYPLAEHLTPTKHAIIQALVHLKNSQKASKACCVPTKLEPISILYLDKGVVTYKFKYEGMAVSECGCR
notes: also called hBMP-10; hBMP10
What is called Kd is a measure of binding affinity in units of concentration. By koff is commonly meant a measure of how fast the partners let go of each other. Lower therefore signals a long-lived complex. For the molecule B1, the binding result in assay [1] is listed as “binds”; in assay [2], “no binding (tested: 100 nM)”; in assay [3], “no binding (tested: 100 nM)”; in assay [4] it was “no binding (tested: 100 nM)”; in assay [5] it was “no binding (tested: 100 nM)”; in [7], “binds”. Besides, the binding result in [8] and in [9] was “binds” each time. Besides, the Kd in assay [6] amounted to 0.13 nM. Besides, in assay [6], the koff amounted to 0.0028 s⁻¹.

B2: BMP9 (ligand, human, UniProt Q9UK05 320-429, looked up)
chain: SAGAGSHCQKTSLRVNFEDIGWDSWIIAPKEYEAYECKGGCFFPLADDVTPTKHAIVQTLVHLKFPTKVGKACCVPTKLSPISVLYKDDMGVPTLKYHYEGMSVAECGCR
notes: also called hBMP-9; hBMP9
With B2, the binding result in assay [1], in [7], in [8] and in [9] was “binds” each time. Besides, in [10], binding was put at a Kd of 0.019 nM. The molecule further registered a koff in assay [10] of 0.0014 s⁻¹.
